Test results from US9580512.

Biological target: CD55 (UniProt P08174)
Test: cell-based or functional assay

Sequence of UniProt P08174 (P08174 35-353 limits assumed): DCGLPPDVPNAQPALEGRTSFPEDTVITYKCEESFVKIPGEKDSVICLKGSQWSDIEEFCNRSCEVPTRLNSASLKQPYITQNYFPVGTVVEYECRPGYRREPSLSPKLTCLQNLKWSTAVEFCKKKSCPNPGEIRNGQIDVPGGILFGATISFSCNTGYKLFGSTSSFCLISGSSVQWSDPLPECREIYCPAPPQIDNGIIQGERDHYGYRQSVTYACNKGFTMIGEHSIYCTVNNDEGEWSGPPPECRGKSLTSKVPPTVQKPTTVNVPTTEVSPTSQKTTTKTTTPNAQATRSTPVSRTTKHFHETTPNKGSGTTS

With BRIC 216 (antibody) the C3b deposition on 791T cells, mean linear fluorescence (MLF) was 350 MLF.
BRIC 220 (antibody) gave a C3b deposition on 791T cells, mean linear fluorescence (MLF) of 200 MLF.
With monoclonal antibody 791T/36 the C3b deposition on 791T cells, mean linear fluorescence (MLF) was 520 MLF and the increase in C3b deposition was 250%.
